Test results reported in patent US20260226125A1 (MEDICENNA THERAPEUTICS, published 2026).
One block for each molecule: values may come before it.

Key:
human CD25 (IL-2Rα) [1] = molecular target: T1, human CD25 (IL-2Rα) (human, UniProt P01589 22-240, limits assumed); experiment: SPR, drawn table 'Individual Receptor Subunit Binding', column 'Affinity for IL-2Rα Kd (nM)'
T1 construct: Receptor reagent used in SPR; also called interleukin 2 receptor alpha
T1 sequence (looked up): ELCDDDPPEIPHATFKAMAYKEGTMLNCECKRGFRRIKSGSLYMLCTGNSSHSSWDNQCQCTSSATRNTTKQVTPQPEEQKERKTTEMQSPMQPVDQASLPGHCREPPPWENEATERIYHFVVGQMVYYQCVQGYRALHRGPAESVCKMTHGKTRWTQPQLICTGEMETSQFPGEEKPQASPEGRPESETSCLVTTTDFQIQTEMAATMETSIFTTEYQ

human CD122 (IL-2Rβ) [2] = molecular target: T2, human CD122 (IL-2Rβ) (human, UniProt P14784 27-240); experiment: SPR, drawn table 'Individual Receptor Subunit Binding', column 'Affinity for IL-2Rβ Kd (nM)'
T2 construct: Receptor reagent used in SPR; also called interleukin 2 receptor beta
T2 sequence (looked up): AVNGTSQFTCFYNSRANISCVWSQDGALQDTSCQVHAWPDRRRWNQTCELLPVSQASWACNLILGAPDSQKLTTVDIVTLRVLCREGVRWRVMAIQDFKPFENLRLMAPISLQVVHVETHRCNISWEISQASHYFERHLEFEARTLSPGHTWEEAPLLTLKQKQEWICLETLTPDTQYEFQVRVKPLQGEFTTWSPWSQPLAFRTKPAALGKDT

human CD25 (IL-2Rα) [3] = molecular target: T1, human CD25 (IL-2Rα); experiment: SPR sensorgram, legend 0.195 to 50 nM
Experimental: (§1) Binding interactions between proteins using purified preparations or complex mixtures can be examined quantitatively in their native state and can assess binding specificity, stoichiometry, concentration, thermodynamics, kinetics (association, kₐ, and dissociation, kd, rate constants), and overall affinity (equilibrium dissociation constant, KD=kd/kₐ). Sensor chips (CM5) were activated (420 s at a flow rate of 10 μL/min) and 50 μg/mL of Anti-histidine antibody (in Immobilization buffer 10 mM Sodium Acetate (pH4.5)) was injected (420 s at a flow rate of 10 μL/min). For ligand capturing, samples were diluted to 5 μg/mL (HEPES, with 0.005% Tween-20, ph7.4) and injected (flow rate of 10 μL/min) to reach a capture level of ~200 RU. Receptors were diluted and up to 8 concentrations as indicated and injected (flow rate of 30 μL/min) for an association phase of 120 seconds, followed by 300 seconds dissociation.

human CD122 (IL-2Rβ) [4] = molecular target: T2, human CD122 (IL-2Rβ); experiment: SPR; 1:1 binding fit
Experimental: as §1

human CD25 (IL-2Rα) [5] = molecular target: T1, human CD25 (IL-2Rα); experiment: SPR; steady state affinity
human CD122 (IL-2Rβ) [6] = molecular target: T2, human CD122 (IL-2Rβ); experiment: SPR; 1:1 binding fit; remark: listed apart in the source
human CD25 (IL-2Rα) [7] = molecular target: T1, human CD25 (IL-2Rα); experiment: SPR; 1:1 binding fit
human CD25 (IL-2Rα) [8] = molecular target: T1, human CD25 (IL-2Rα); experiment: SPR sensorgram, no concentration legend
human CD25 (IL-2Rα) [9] = molecular target: T1, human CD25 (IL-2Rα); experiment: SPR sensorgram, series 62.5 to 1.953 nM
Experimental: as §1

[10] = molecular target: T3, γc (CD132, IL-2Rγ, common gamma chain) (human, UniProt P31785 23-369); experiment: cell-based or functional assay
T3 sequence (looked up): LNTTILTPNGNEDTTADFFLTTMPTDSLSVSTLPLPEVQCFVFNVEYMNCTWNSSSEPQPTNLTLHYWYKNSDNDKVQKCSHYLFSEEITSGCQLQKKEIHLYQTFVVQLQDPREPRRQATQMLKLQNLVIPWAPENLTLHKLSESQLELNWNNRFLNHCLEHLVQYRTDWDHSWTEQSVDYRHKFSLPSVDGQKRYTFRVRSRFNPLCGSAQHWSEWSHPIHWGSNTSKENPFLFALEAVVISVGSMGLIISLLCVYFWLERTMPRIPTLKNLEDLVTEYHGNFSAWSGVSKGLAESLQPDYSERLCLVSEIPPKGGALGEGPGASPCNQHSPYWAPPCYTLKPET

human CD25 (IL-2Rα) [11] = molecular target: T1, human CD25 (IL-2Rα); experiment: SPR; steady state affinity; remark: listed apart in the source
Experimental: as §1

[12] = molecular target: T4, high affinity IL-2 receptor (human IL-2Rα, IL-2Rβ, IL-2Rγ) on HEK-Blue IL-2 reporter cells (human, UniProt P01589 22-272; P14784 27-551; P31785 23-369); experiment: cell-based or functional assay
T4 sequence (looked up) 1: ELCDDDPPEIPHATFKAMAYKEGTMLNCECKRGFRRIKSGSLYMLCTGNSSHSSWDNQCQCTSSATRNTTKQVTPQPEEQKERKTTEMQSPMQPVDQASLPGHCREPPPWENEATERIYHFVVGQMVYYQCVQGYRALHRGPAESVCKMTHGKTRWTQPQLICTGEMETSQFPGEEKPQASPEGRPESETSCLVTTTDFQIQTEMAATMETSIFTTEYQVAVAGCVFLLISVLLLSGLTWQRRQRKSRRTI
T4 sequence (looked up) 2: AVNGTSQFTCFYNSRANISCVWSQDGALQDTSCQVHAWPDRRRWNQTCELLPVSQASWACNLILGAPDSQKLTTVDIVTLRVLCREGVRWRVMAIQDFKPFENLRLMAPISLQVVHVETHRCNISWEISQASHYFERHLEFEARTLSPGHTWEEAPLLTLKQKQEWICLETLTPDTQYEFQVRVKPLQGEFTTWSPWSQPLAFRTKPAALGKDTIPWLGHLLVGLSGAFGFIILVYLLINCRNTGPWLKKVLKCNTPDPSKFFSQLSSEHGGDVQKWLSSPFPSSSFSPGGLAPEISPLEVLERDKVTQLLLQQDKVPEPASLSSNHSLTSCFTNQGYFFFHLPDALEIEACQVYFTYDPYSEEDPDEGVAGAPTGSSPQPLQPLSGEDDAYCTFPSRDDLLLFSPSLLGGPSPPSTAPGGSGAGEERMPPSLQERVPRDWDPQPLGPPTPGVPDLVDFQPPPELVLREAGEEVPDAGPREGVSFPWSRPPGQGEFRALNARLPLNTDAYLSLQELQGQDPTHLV
T4 sequence (looked up) 3: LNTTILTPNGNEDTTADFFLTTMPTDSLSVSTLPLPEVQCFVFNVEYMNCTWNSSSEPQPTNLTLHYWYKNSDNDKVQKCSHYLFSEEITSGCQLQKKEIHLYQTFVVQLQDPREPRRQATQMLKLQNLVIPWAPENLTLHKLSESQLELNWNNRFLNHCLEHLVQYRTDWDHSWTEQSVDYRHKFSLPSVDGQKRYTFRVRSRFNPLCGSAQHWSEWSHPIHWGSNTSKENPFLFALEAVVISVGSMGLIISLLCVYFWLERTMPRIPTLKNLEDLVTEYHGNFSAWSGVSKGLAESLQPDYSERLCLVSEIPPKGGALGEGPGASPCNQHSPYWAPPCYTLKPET

[13] = molecular target: T3, γc (CD132, IL-2Rγ, common gamma chain); experiment: cell-based or functional assay; remark: listed apart in the source

B1: MDNA209FA-Fc (2:1) (Fc fusion)
chain: APTSSSTKKTQLQLEHLRLDLEMILNGINNYKNPKLTRMLTAKFYMPKKATELKHLQCLEEELKPLEEVLNLAQSKNFHFDPRDVVSNINVFVLELKGSETTFMCEYADETATIVEFLNRWITFCTSIIRTLT
notes: MDNA209 plus F42A, fused to Fc; also called TP40451F; not shown: linker (if any) and Fc region
binding result (human CD25 (IL-2Rα) [3]): no binding (tested: 50 nM)
Kd (human CD122 (IL-2Rβ) [4]): 5.51 nM

B2: MDNA209(3)FA-Fc (Fc fusion)
chain: APTSSSTKKTQLQLEHLRLDLEMILNGINNYKNPKLTRMLTAKFYMPKKATELKHLQCLEEELKPLEEVLNLAQSKNFHFDPRDVVSNINVFVLELKGSETTFMCEYADETATIVEFLNRWITFCTSIISTLT
notes: MDNA209(3) plus F42A fused to Fc, made in CHO; not shown: linker (if any) and Fc region
Kd (human CD25 (IL-2Rα) [5]): 4610 nM
Kd (human CD122 (IL-2Rβ) [6]): 3.79 nM

B4: MDNA209(3)-Fc (Fc fusion)
chain: APTSSSTKKTQLQLEHLRLDLEMILNGINNYKNPKLTRMLTFKFYMPKKATELKHLQCLEEELKPLEEVLNLAQSKNFHFDPRDVVSNINVFVLELKGSETTFMCEYADETATIVEFLNRWITFCTSIISTLT
notes: MDNA209(3) (L18R, Q22E, L80F, R81D, L85V, I86V, I92F, Q126T) fused to Fc, made in CHO; not shown: linker (if any) and Fc region
Kd (human CD25 (IL-2Rα) [7]): 35.8 nM
Kd (human CD122 (IL-2Rβ) [6]): 3.25 nM

B6: MDNA209FEAA (free) (ligand)
chain: APTSSSTKKTQLQLEHLRLDLEMILNGINNYKNPKLTRMLTAKFYMPKKATELKHLQCLEEALKPLEEVLNLAQSKNFHFDPRDVVSNINVFVLELKGSETTFMCEYADETATIVEFLNRWITFCTSIIRTLT
binding result (human CD25 (IL-2Rα) [8]): no binding
Kd (human CD122 (IL-2Rβ) [6]): 1.59 nM

B7: MDNA209FEAA-Fc-A11 (2:1:2) (Fc fusion)
chain: APTSSSTKKTQLQLEHLRLDLEMILNGINNYKNPKLTRMLTAKFYMPKKATELKHLQCLEEALKPLEEVLNLAQSKNFHFDPRDVVSNINVFVLELKGSETTFMCEYADETATIVEFLNRWITFCTSIIRTLT
notes: Bispecific format: IL-2 antagonist mutein with FEAA, Fc, and IL-13 mutein A11; also called Construct #10; not shown: linker (if any), Fc, linker and IL-13 mutein A11
Kd (human CD122 (IL-2Rβ) [4]): 4.59 nM
binding result (human CD25 (IL-2Rα) [9]): no binding (tested: 62.5 nM)

B8: MDNA209FEAA-Fc (2:1) (Fc fusion)
chain: APTSSSTKKTQLQLEHLRLDLEMILNGINNYKNPKLTRMLTAKFYMPKKATELKHLQCLEEALKPLEEVLNLAQSKNFHFDPRDVVSNINVFVLELKGSETTFMCEYADETATIVEFLNRWITFCTSIIRTLT
notes: MDNA209 plus F42A, E62A, fused to Fc; also called MDN209FEAA-Fc; TP36871F; not shown: linker (if any) and Fc region
Kd (human CD122 (IL-2Rβ) [4]): 4.94 nM
binding result (human CD25 (IL-2Rα) [9]): no binding (tested: 62.5 nM)
EC50 (agonist activity), HEK-Blue IL-2 reporter assay [10]: > 107 nM
Fold against hIL-2 (agonist activity), HEK-Blue IL-2 reporter assay [10]: ~2800 fold

The next lines start with the values.

Kd (human CD25 (IL-2Rα) [1]): 14 nM
Kd (human CD122 (IL-2Rβ) [2]): 2.7 nM
Molecule: MDNA109-Fc (Fc fusion)

Kd (human CD25 (IL-2Rα) [7]): 31.3 nM
Kd (human CD122 (IL-2Rβ) [6]): 0.537 nM
B3: MDNA209 (free) (ligand)
chain: APTSSSTKKTQLQLEHLRLDLEMILNGINNYKNPKLTRMLTFKFYMPKKATELKHLQCLEEELKPLEEVLNLAQSKNFHFDPRDVVSNINVFVLELKGSETTFMCEYADETATIVEFLNRWITFCTSIIRTLT

binding result (human CD25 (IL-2Rα) [3]): no binding (tested: 50 nM)
Kd (human CD122 (IL-2Rβ) [4]): 4.99 nM
B5: MDNA209FEY-Fc (2:1) (Fc fusion)
chain: APTSSSTKKTQLQLEHLRLDLEMILNGINNYKNPKLTRMLTAKFAMPKKATELKHLQCLEEELKPLEEVLNLAQSKNFHFDPRDVVSNINVFVLELKGSETTFMCEYADETATIVEFLNRWITFCTSIIRTLT
notes: MDNA209 plus F42A, Y45A, fused to Fc; also called TP40452F; not shown: linker (if any) and Fc region

Kd (human CD25 (IL-2Rα) [11]): 39.1 nM
Kd (human CD122 (IL-2Rβ) [4]): 3.91 nM
Fold against IL-2-Fc alone, HEK-Blue IL-2 reporter assay, antagonist format [12]: 15.1 fold
fold decrease in Fold against hIL-2, HEK-Blue IL-2 reporter assay, fixed agonist format [12]: 210 fold
B9: MDNA209-Fc (2:1) (Fc fusion)
chain: APTSSSTKKTQLQLEHLRLDLEMILNGINNYKNPKLTRMLTFKFYMPKKATELKHLQCLEEELKPLEEVLNLAQSKNFHFDPRDVVSNINVFVLELKGSETTFMCEYADETATIVEFLNRWITFCTSIIRTLT
notes: IL-2 mutein MDNA209 (L18R, Q22E, L80F, R81D, L85V, I86V, I92F, Q126T, S130R) fused to Fc; (2:1) read as two muteins per Fc dimer; order from the name; also called MDNA209 (2:1) Fc; Construct #8; not shown: linker (if any) and Fc region

Kd (human CD122 (IL-2Rβ) [4]): 3.75 nM
fold decrease in agonist activity, HEK-Blue IL-2 reporter assay [13]: ~60 fold
binding result (human CD25 (IL-2Rα) [9]): no binding (tested: 62.5 nM)
B10: MDNA209(3)FEAA-Fc (2:1) (Fc fusion)
chain: APTSSSTKKTQLQLEHLRLDLEMILNGINNYKNPKLTRMLTAKFYMPKKATELKHLQCLEEALKPLEEVLNLAQSKNFHFDPRDVVSNINVFVLELKGSETTFMCEYADETATIVEFLNRWITFCTSIISTLT
notes: MDNA209(3) (no S130R) plus F42A, E62A, fused to Fc; also called TP36872F; not shown: linker (if any) and Fc region
